Literature values as cited in publication PMC3012698, “Characterization of a Novel Interaction between Bcl-2 Members Diva and Harakiri” (PLoS ONE, 2010).
Like-named read-outs stand apart in the source and are kept apart here. Each block holds one substance with its values, some of them ahead of it.

Experiments:
Mcl-1 [1] = biological target: Mcl-1 (UniProt Q07820)
Bcl-2 (Homo sapiens) [2] = biological target: Bcl-2 (Homo sapiens) (UniProt P10415)
BFL-1 (Homo sapiens) [3] = biological target: BFL-1 (Homo sapiens) (UniProt Q16548)
Bcl-2 (Homo sapiens) [4] = biological target: Bcl-2 (Homo sapiens) (UniProt P10415); remark: listed apart in the source
Bcl-w (Homo sapiens) = Bcl-w (Homo sapiens) (UniProt Q92843)
Mcl-1 [5] = biological target: Mcl-1 (UniProt Q07820); remark: listed apart in the source
BFL-1 (Homo sapiens) [6] = biological target: BFL-1 (Homo sapiens) (UniProt Q16548); remark: listed apart in the source

Sequence of Mcl-1 (Q07820 whole entry): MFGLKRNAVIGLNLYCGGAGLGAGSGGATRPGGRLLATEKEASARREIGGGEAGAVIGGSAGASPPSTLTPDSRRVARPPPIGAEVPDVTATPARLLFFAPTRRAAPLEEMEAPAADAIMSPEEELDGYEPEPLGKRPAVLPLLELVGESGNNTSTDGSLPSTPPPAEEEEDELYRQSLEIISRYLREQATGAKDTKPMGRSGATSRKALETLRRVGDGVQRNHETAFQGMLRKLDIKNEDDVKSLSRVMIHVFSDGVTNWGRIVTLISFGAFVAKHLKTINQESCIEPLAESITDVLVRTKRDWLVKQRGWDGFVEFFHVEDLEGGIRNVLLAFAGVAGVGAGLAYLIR
Sequence of BFL-1 (Homo sapiens) (Q16548 whole entry): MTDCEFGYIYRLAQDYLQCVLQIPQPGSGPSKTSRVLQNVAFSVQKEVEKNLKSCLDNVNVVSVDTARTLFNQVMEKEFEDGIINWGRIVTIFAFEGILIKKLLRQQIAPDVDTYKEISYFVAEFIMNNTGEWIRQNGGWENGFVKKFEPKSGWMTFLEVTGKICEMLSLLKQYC
Sequence of Bcl-2 (Homo sapiens) (P10415 whole entry): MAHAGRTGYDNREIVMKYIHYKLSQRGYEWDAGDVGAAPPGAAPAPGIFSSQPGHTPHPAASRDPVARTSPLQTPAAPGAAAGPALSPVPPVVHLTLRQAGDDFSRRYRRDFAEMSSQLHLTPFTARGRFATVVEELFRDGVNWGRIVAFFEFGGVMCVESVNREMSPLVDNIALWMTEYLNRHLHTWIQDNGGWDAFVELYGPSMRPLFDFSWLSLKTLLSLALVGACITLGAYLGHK
Sequence of Noxa BH3 (Q13794 19-43): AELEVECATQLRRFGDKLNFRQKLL
Sequence of Bik BH3 (Q13323 51-75): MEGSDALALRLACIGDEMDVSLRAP
Sequence of Bcl-w (Homo sapiens) (Q92843 2-193): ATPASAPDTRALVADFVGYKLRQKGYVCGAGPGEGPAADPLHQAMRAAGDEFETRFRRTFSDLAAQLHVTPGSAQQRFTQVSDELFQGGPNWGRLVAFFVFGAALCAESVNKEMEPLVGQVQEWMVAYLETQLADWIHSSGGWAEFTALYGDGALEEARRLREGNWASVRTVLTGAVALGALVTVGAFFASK

Kd (Mcl-1 [1]): 0.025 µM
Kd (Bcl-2 (Homo sapiens) [2]): > 2.5 µM
Substance: Noxa BH3 (from UniProt Q13794)

Kd (BFL-1 (Homo sapiens) [3]): > 2.5 µM
Kd (Bcl-2 (Homo sapiens) [4]): > 2.5 µM
Kd (Bcl-w (Homo sapiens)): > 2.5 µM
Substance: Harakiri BH3 (from UniProt O00198)

Kd (Mcl-1 [5]): 0.109 µM
Kd (BFL-1 (Homo sapiens) [6]): > 2.5 µM
Substance: Bik BH3 (from UniProt Q13323)
